Data on three molecules can be found in patent publication US20060269557A1 (CITY OF HOPE, published 2006).

In assay [1] the target is T1, soluble PSCA fused human IgG1 or mouse IgG2a Fc (UniProt O43653 12-86, limits assumed).
T1 construct: also called PSCA-Fc; not shown: human IgG1 Fc or mouse IgG2a Fc
T1 sequence (looked up): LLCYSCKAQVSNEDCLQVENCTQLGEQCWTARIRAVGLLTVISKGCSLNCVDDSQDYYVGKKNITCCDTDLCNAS
Kind of assay: relative binding affinity, competitive ELISA. As for the experimental part: (§1) The relative binding affinities of the antibodies were measured by competitive ELISA using biotinylated mu1G8 as tracer. Wells were coated with soluble PSCA fused human IgG1 or mouse IgG2a Fc that had been expressed in pEE12 as described above and purified by Protein A affinity chromatography (Poros2.0; PerkinElmer, Wellesley, Mass.). A fixed concentration of biotinylated parental antibody and increasing concentrations of non-biotinylated competitors were used as previously described (Olafsen 2004). Detection of biotinylated antibody was made with alkaline phosphatase-conjugated streptavidin (Jackson ImmunoResearch Laboratories).
(ELISA stands for enzyme-linked immunosorbent assay.)

For assay [2], the target named is T1, soluble PSCA fused human IgG1 or mouse …. Kind of assay: competitive ELISA on coated PSCA-Fc, biotinylated mu1G8 as tracer. The method, then:
as §1

B1: humanized 1G8 antibody hu1G8-B (antibody, V domains shown)
VH: EVQLVESGGGLVQPGGSLRLSCAASGFNIKDYYIHWVRQAPGKGLEWVAWIDPENGDTEFVPKFQGRATISADTSKNTAYLQMNSLRAEDTAVYYCKTGGFWGQGTLVTVSS
VL: DIQLTQSPSSLSASVGDRVTITCSASSSVRFIHWYQQKPGKAPKRLIYDTSKLASGVPSRFSGSGSGTDFTLTISSLQPEDFATYYCQQWSSSPFTFGQGTKVEIK
notes: Labelled with 124I in the immunoreactivity assays; also called M6B; clone 2B3
Usually Kd stands for the concentration at which binding is half-saturated. Consider B1, for which, in assay [1], the “fold higher relative binding affinity compared to hu1G8-A” value came out at 6 fold and the “fold lower binding affinity than mu1G8” value is ~5 fold. For the same molecule, in assay [2], the Kd is ~25 nM.

B2: humanized 1G8 antibody hu1G8-A (antibody, V domains shown)
VH: EVQLVESGGGLVQPGGSLRLSCAASGFNIKDYYIHWVRQAPGKGLEWVAWIDPENGDTEFADSVKGRFTISADTSKNTAYLQMNSLRAEDTAVYYCKTGGFWGQGTLVTVSS
VL: DIQLTQSPSSLSASVGDRVTITCSASSSVRFIHWYQQKPGKAPKRLIYDTSKLASGVPSRFSGSGSGTDFTLTISSLQPEDFATYYCQQWSSSPFTFGQGTKVEIK
notes: also called M6A
Consider B2, for which the Kd in assay [2] is ~150 nM.

B3: murine monoclonal antibody 1G8 (antibody, V domains shown)
VH: EVQLQQSGAELVRSGASVKLSCTASGFNIKDYYIHWVNQRPDQGLEWIGWIDPENGDTEFVPKFQGKATMTADIFSNTAYLHLSSLTSEDTAVYYCKTGGFWGQGTLVTVSA
VL: QVVLTQSPAIMSASPGEKVTMACSASSSVRFIHWYQQKSGTSPKRWIYDTSKLASGVPTRFSGSGSGTSYSLTISTMEAEDAATYYCQQWSSSPFTFGSGTKLIIK
notes: Intact murine antibody from hybridoma; also called mu1G8; parental mu1G8
In the case of B3, the equilibrium dissociation constant (Kd) in assay [2] was ~5 nM.
